# Measurements from US20240076361A1.
# Molecular target: Tau from human Alzheimer's Disease brain lysate (Braak stage VI) (human), P10636
# Test: ELISA on Tau captured from AD brain lysate, curve without blocking peptide
# Conditions: remark: other sources report otherwise
# Sequence of Tau from human Alzheimer's Disease brain lysate (Braak stage VI) (human), P10636 (P10636 other isoform, or with tags, fused parts or gaps limits assumed): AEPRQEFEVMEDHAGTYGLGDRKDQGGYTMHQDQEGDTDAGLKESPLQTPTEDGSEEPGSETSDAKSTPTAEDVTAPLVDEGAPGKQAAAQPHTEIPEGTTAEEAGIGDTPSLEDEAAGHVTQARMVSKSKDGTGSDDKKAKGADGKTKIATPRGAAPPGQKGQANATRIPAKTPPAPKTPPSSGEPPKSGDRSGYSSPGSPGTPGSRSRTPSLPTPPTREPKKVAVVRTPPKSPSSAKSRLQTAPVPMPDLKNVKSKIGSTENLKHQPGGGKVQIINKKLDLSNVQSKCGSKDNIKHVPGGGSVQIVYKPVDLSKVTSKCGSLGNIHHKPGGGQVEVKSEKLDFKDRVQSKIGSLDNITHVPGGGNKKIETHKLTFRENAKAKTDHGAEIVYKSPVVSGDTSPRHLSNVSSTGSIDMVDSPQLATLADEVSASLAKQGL
binder,measurement,value
"PT3 comparator antibody (antibody, here or on the partner: native phosphorylation and other post-translational modifications, not defined) chain 1: EVKLVESGGDLVKPGGSLKLSCAASGFTFSSYAMSWVRQNPEKRLEWVASISKGGNTYYPNSVKGRFTISRDNARNILYLQMSSLRSEDTALYYCARGWGDYGWFAYWGQVTLVTVSA chain 2: DIKMTQSPSSMYASLGERVTITCKASQDINRYLNWFQQKPGKSPKTLIYRANRLLDGVPSRFSGSGSGQDYSLTISSLDYEDMGIYYCLQYDEFPLTFGDGTKLELK",EC50 (read off the curve),0.02 nM
